Biological target: recombinant human FcγRIIa (131H)-glutathione-S-transferase (human) (UniProt P12318)
Experiment: AlphaScreen competition: the antibody inhibits binding of FcγRIIa (131H)-GST to biotinylated human IgG1 (m6)

| Substance | IC50 (read off the curve) [µM] |
| --- | --- |
| romosozumab PARG (SEQ ID NO: 8) C-terminal variant (antibody) | 0.02 |
| wild-type romosozumab (antibody) | 0.1 |

Reference: patent US20230015713A1
